Target: ERBB2 (HER2) (Homo sapiens?) (UniProt P04626)
Assay: filter
Conditions: for Kd: same buffer, 37 C

GAGTGACCGTCTGCCTGATGTTAGAGTTTGCCTGAGTGCCTCGCAAGGGCGTAACAACAGCCACACCACCAGCC [clone #11 (1194-2, 9-ER-N-B12_C06)]
Kd (6 (n) = NapdU [n positions 19,21,22,27,28,29,33,37,41,52 = modified dU], Bmax 0.29): 3.06 nM

GAGTGACCGTCTGCCTGGTTAGACTGAACGCACTGAGGGCCGCAGCCTATCTGAAGGCAGCCACACCACCAGCC [clone #10 (9-ER-N-B09_B06)]
Kd (6 (n) in core = NapdU [n positions 19,20,25,34,48,50,52 = modified dU], Bmax 0.25): 3.71 nM

GAGTGACCGTCTGCCTGGTCTGAACACCGAGATTAGCCGAACGAACGGTATGGACGTCAGCCACACCACCAGCC [clone #33 (9-ER-N-F02_A09)]
Kd (6 (n) in core = NapdU [n positions 19,21,33,34,49,51,57 = modified dU], Bmax only 0.03): 9.79 nM

ATGTTAGAGTTTGCCTGAGTGCCTCGCAAGGGCGTAACAA [AP001-24 (1194-34, #11 short)]
selectivity ratio (ERBB2 over EGFR affinity) (6 (n) = NapdU [n positions 2,4,5,10,11,12,16,20,24,35 = modified dU], affinity for ERBB2 relative to EGFR, curve in figure only): > 1000 fold
